The results in this text go back to US20260132218A1 (A AND G PHARMACEUTICAL, published 2026).

One experiment has as its target HER2 on SKBR3 cells (human, UniProt P04626 23-1255). As to the kind of experiment: cell-based or functional assay.
Experiment [1] addresses T1, human recombinant His-tagged HER2 extracellular domain (human, UniProt P04626 23-652).
T1 construct: extracellular domain; also called HER2-ECD; HER-ECD
The experiment in a line: competition EIA on coated HER2, competitor trastuzumab-biotin; given as ED50. Here is the method: (§1) Method: 96 well high binding EIA plates were coated with 10 ng of HER2 protein overnight at 4 C. […] After washing, colorimetric substrate 3,3′,5,5′-tetramethylbenzidine (TMB) was added and absorbance at 620 nm was determined after 10 minutes.

Experiment [2] deals with T1, human recombinant His-tagged HER2 …. The experiment in a line: blocking ELISA (competition EIA): HER2 protein coated on the plate, pre-incubated with the antibody, then competitor anti-HER2 TRAST-biotin, streptavidin-HRP; signal as % of h.IgG. On the procedure:
as §1

B1: 2A2 (antibody, IgG2a, V domains shown)
VH: EVQLVESGGGLVQPGRSLRLSCAASGFTFDDYAMHWVRQAPGKGLEWVSGISWNGGTLGYADSVKGRFTISRDNAKNSLYLQMNSLRAEDTALYYCAKDTGSYSHWYFDLWGRGTLVTVSS
VL: EIVMTQSPATLSVSPGERATLSCRASQSVRSNLAWYQQKPGQAPRLLIYGASTRATGIPARFSGSGSGTEFTLTISSLHSEDFAVYYCQQYNNWPTFGQGTKVEIK
notes: also called AGRD017-2A2; fully human 2A2 antibody
For B1, the “Migration assay, at 50 ug/ml (inhibition of migration of SKBR3 cells)” value with HER2 on SKBR3 cells was 38%. The IC50 in experiment [1] was 0.09 µg/mL.

B2: 3G7 (antibody, IgG1, V domains shown)
VH: EVQLVESGGGLVQPGRSLRLSCAASGFTFDDYAMHWVRQAPGKGLEWVSGVSWNGGTMGYAGSVKGRFTISRDNAKNSLYLQMNSLRAEDTALYYCAKDTGSYSHWYFDLWGRGTLVTVSS
VL: EIVMTQSPATLSVSPGERATLSCRASQSVRSNLAWYQQKPGQAPRLLIYGASTRATGIPGRFSGSGSGTEFILTISSLQSEDFAVYYCQQYNNWPTFGQGTKVEIK
notes: also called AGRD017-3G7; fully human 3G7 antibody
For B2, in the experiment with HER2 on SKBR3 cells, the “Migration assay, at 50 ug/ml (inhibition of migration of SKBR3 cells)” value was found to be 24%. The IC50 in experiment [1] turned out to be 0.06 µg/mL.

B3: 8C1 (antibody, IgG2a, V domains shown)
VH: EVQLVESGGGLVQPGRSLRLSCTASGFTFDDYAMHWVRQAPGKGLEWVSGISWNGGTLGYADSVKGRFTISRDNAKNSLYLQMNSLRAEDTALYYCAKDTGSYSHWYFDLWGRGTLVTVSS
VL: EIVMTQSPATLSVSPGERATLSCRASQSVRSNLAWYQQKPGQAPRLLIYGASTRATGIPARFSGSGSGTEFTLTISSLHSEDFAVYYCQQYNNWPTFGQGTKVEIK
notes: also called AGRD017-8C1; fully human 8C1 antibody
With B3, the “Migration assay, at 50 ug/ml (inhibition of migration of SKBR3 cells)” value with HER2 on SKBR3 cells turned out to be 32%. Also, the IC50 in experiment [1] worked out at 0.1 µg/mL.

B4: 11D7 (antibody, V domains shown)
VH: EVQLVESGGGLVQPGRSLRLSCAASGFTFDDYAMHWVRQAPGKGLEWVSGIAWNGGILGYADSVKGRFTISRDNAKNSLYLQMNSLRAEDTALYYCAKDTGSYSHWYFDLWGRGTLVTVSS
VL: EIVMTQSPATLSVSPGERATLSCRASQSVRSNLAWYQQKPGQAPRLLIYGASTRATGIPARFSGSGSGTEFTLTISSLQSEDFAVYCCQQYNNWPTFGQGTKVEIK
notes: Hybridoma antibody from TC-mAb mice; also called AGRD017-11D7; fully human 11D7 antibody
Consider B4, for which the “Migration assay, at 50 ug/ml (inhibition of migration of SKBR3 cells)” value in the experiment with HER2 on SKBR3 cells was 32%. For the same molecule, in experiment [1], the IC50 stood at 0.06 µg/mL.

B5: 12E3 (antibody, IgG1, V domains shown)
VH: EVQLVGSGGGLVQPGRSLRLSCAASGFTFDDYAMHWVRQAPGKGLEWVSGISWNGGTLGYAGSVKGRFTISRDNAKNSLYLQMNSLRAEDTALYYCAKDTGSYSHWYFDLWGRGTLVTVSS
VL: EIVMTQSPATLSVSPGERATLSCRASQSVRSNLAWYQQKPGQAPRLLIYGASTRATGIPARCSGSGSGTEFTLTISSLQSEDFAVYYCQQYNNWPTFGQGTKVEIK
notes: also called AGRD017-12E3; fully human 12E3 antibody
Take B5: in the experiment with HER2 on SKBR3 cells, the “Internalization: Fluorescent Units” value came to 9000 Fluorescent Units and the “Migration assay, at 50 ug/ml (inhibition of migration of SKBR3 cells)” value stood at 45%. In addition, in experiment [1], the IC50 stood at 0.04 µg/mL.

B6: 2D7 (antibody, IgG1, V domains shown)
VH: EVQLVESGGGLVQPGRSLRLSCAASGFTFDDYAMHWVRQAPGKGLEWVSGISWNSGTMGYAGSVKGRFTISRDNAKNSLYLQMNSLRAEDTALYYCAKDTGSYSHWYFDLWGRGTLVTVSS
VL: not shown
notes: also called AGRD017-2D7; fully human 2D7 antibody
For B6, in the experiment with HER2 on SKBR3 cells, the “Killing assay at 0.3 ug/ml Ab (2 nM), DM1 (6 nM), 72 hr” value was 50% and the “Migration assay, at 50 ug/ml (inhibition of migration of SKBR3 cells)” value amounted to 59%. In experiment [2], the “IC50 (read off the curve)” value is ~0.1 µg/mL.
